Experimental data: publication PMC1885664 (Nucleic Acids Research, 2007)
Where a chain is given by its changes, count along the chain named. In names and notes the source's numbering stands.

Experiments:
SEC = target: the molecule itself; assay: SEC
crystal structure = target: the molecule itself; assay: crystal structure

B1: P. aeruginosa RdgC K146A mutant (natural protein, Pseudomonas aeruginosa PAO1, UniProt Q9HYX7 1-306, looked up)
chain: MWFRNLLVYRLTQDLQLDADSLEKALGEKSARPCASQELTTYGFTAPFGKGPDAPLVHVSQDFFLISARKEERILPGSVVRDALKEKVDEIEAQQMRKVYKKERDQLKDEIVQTLLPRAFIRRSSTFAAIAPSLGLILVDSASAKAAEDLLSTLREALGSLPVRPLSVKVAPTATLTDWVKTQEAAGDFHVLDECELRDTHEDGGVVRCKRQDLTSEEIQLHLTAGKLVTQLSLAWSDKLSFVLDDKLAVKRLRFEDLLQEQAEKDGGEDALGQLDASFTLMMLTFAEFLPALFEALGGEEIPQGV
binding result (SEC): binds

B2: P. aeruginosa RdgC R211D mutant (natural protein, Pseudomonas aeruginosa PAO1, UniProt Q9HYX7 1-306, looked up)
chain: B1 chain with A146K, R211D
binding result (SEC): binds

B3: P. aeruginosa RdgC R252A mutant (natural protein, Pseudomonas aeruginosa PAO1, UniProt Q9HYX7 1-306, looked up)
chain: B1 chain with A146K, R252A
binding result (SEC): binds

B4: Pseudomonas aeruginosa RdgC (recombination-associated DNA-binding protein), wild type (natural protein, Pseudomonas aeruginosa PAO1, UniProt Q9HYX7 1-306, looked up)
chain: B1 chain with A146K
stoichiometry N (crystal structure): 2

B5: P. aeruginosa RdgC F120A mutant (natural protein, Pseudomonas aeruginosa PAO1, UniProt Q9HYX7 1-306, looked up)
chain: B1 chain with F120A, A146K
binding result (SEC): binds

B6: P. aeruginosa RdgC R81D mutant (natural protein, Pseudomonas aeruginosa PAO1, UniProt Q9HYX7 1-306, looked up)
chain: B1 chain with R81D, A146K
binding result (SEC): binds

B7: P. aeruginosa RdgC R122D mutant (natural protein, Pseudomonas aeruginosa PAO1, UniProt Q9HYX7 1-306, looked up)
chain: B1 chain with R122D, A146K
binding result (SEC): binds

B8: P. aeruginosa RdgC R208A mutant (natural protein, Pseudomonas aeruginosa PAO1, UniProt Q9HYX7 1-306, looked up)
chain: B1 chain with A146K, R208A
binding result (SEC): binds

B9: P. aeruginosa RdgC Q212A mutant (natural protein, Pseudomonas aeruginosa PAO1, UniProt Q9HYX7 1-306, looked up)
chain: B1 chain with A146K, Q212A
binding result (SEC): binds

B10: P. aeruginosa RdgC K70D mutant (natural protein, Pseudomonas aeruginosa PAO1, UniProt Q9HYX7 1-306, looked up)
chain: B1 chain with K70D, A146K
binding result (SEC): binds

B11: P. aeruginosa RdgC R4A mutant (natural protein, Pseudomonas aeruginosa PAO1, UniProt Q9HYX7 1-306, looked up)
chain: B1 chain with R4A, A146K
binding result (SEC): binds

B12: P. aeruginosa RdgC R198A mutant (natural protein, Pseudomonas aeruginosa PAO1, UniProt Q9HYX7 1-306, looked up)
chain: B1 chain with A146K, R198A
binding result (SEC): binds
